Paper PMC2812701, “RelB and RelE of Escherichia coli Form a Tight Complex That Represses Transcription via the Ribbon–Helix–Helix Motif in RelB” (Journal of Molecular Biology, 2009)
Where “and” joins values, the source holds several entries; their conditions need not be identical. Identical values can stand only once.

Legend:
RelB-Cys (E. coli) [1] = biological target: RelB-Cys (E. coli) (UniProt P0C079); assay: SPR; Biacore 3000, CM5 chip; about 40 RU RelB-Cys immobilised by ligand thiol coupling; His6-RelE injected at 12.5-100 nM, 60 ul/min; HBS-EP (10 mM Hepes, 150 mM NaCl, 0.005% Tween 20, 3 mM EDTA, pH 7.4); 1:1 Langmuir fit; apparent Kd (koff/kon)
HMK-RelB (E. coli) = biological target: T1, HMK-RelB (E. coli) (UniProt P0C079)
T1 sequence (chain, 32P label on the N-terminal HMK-tag (RRASV)): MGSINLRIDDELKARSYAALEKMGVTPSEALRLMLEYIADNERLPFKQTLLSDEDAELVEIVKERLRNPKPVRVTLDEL

RelB-Cys (E. coli) [2] = biological target: RelB-Cys (E. coli) (UniProt P0C079); assay: SPR; Biacore 3000, CM5 chip; RelB-Cys immobilised by ligand thiol coupling; Lon-His6 injected at 200 nM with or without MgCl2 (8 mM) and ATP (2 mM), and at 12.5-100 nM (monomer) for kinetics; 60 ul/min; HBS-EP pH 7.4; apparent Kd
[3] = tested on: RelB R7A;His6-RelE (Escherichia coli;Escherichia coli); assay: EMSA; conditions: EMSA and footprint binding buffer as in an earlier paper (not given); footprint binding volume 35 ul, radical cleavage 37 C 1 min; native PAGE for EMSA
[4] = tested on: RelB K13A;His6-RelE (Escherichia coli;Escherichia coli); assay: EMSA; conditions: EMSA and footprint binding buffer as in an earlier paper (not given); footprint binding volume 35 ul, radical cleavage 37 C 1 min; native PAGE for EMSA
[5] = tested on: RelB S28L;His6-RelE (Escherichia coli;Escherichia coli); assay: EMSA; conditions: EMSA and footprint binding buffer as in an earlier paper (not given); footprint binding volume 35 ul, radical cleavage 37 C 1 min; native PAGE for EMSA
[6] = biological target: the molecule itself; assay: cross-linking; chemical cross-linking of WT RelB and the mutated variants with BS3 [bis(sulfosuccinimidyl) suberate] (Fig. S1)
His6-RelE [7] = biological target: T2, His6-RelE (E. coli, UniProt P0C077 1-95); assay: other fluorescence titration; tryptophan fluorescence of His6-RelE (0.35 uM) titrated with RelB; 25 °C; phosphate-buffered saline pH 7.4; excitation 295 nm, emission about 330 nm; conditions: both partners purified
T2 construct: toxin RelE (mRNA interferase) of the relBE locus, Escherichia coli, wild type; also called co-repressor RelE; mRNA interferase RelE; source: also in cells, co-expressed with RelB; not shown: His6, N-terminal, kept
T2 sequence (looked up): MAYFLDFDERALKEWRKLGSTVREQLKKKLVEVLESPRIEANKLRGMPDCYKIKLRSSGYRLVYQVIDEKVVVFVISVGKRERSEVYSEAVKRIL

His6-RelE [8] = biological target: T2, His6-RelE; assay: amino acid analysis of the co-purified complex; purified RelB·RelE complex preformed in vivo (Table S2); conditions: partners not purified

Question: With “His6-RelE (from UniProt P0C077 1-95) (natural protein)” as the molecule, how does the Kd (RelB-Cys (E. coli) [1]) read?
Answer: Its Kd is 0.33 nM.

Question: And the in vitro half-life of the complex (RelB-Cys (E. coli) [1])?
Answer: The in vitro half-life of the complex was 1.17 h.

Question: And the koff (RelB-Cys (E. coli) [1])?
Answer: Its koff is 0.000166 s⁻¹.

Question: What about the kon (RelB-Cys (E. coli) [1]) of the same molecule?
Answer: Its kon is 501000 M⁻¹ s⁻¹.

Question: Which results are given for “Lon-His6 (from UniProt P0A9M0 1-784) (enzyme)”?
Answer: in vitro degradation of 32P-labelled HMK-RelB (0.13 uM) by Lon (0.6 uM) at 37 °C, ATP- and Mg2+-dependent, time course up to 120 min; in vitro half-life of HMK-RelB (HMK-RelB (E. coli)): > 1 h; Kd (RelB-Cys (E. coli) [2]): < 2 nM; koff (RelB-Cys (E. coli) [2]): 0.000234 s⁻¹

Question: Which results are given for relO166 (Cy5)?
Answer: K half [3]: > 1250 nM; K half [4]: > 1250 nM; K half [5]: > 1250 nM

B1: RelB (wild type) (natural protein, E. coli, UniProt P0C079 1-79, looked up)
chain: MGSINLRIDDELKARSYAALEKMGVTPSEALRLMLEYIADNERLPFKQTLLSDEDAELVEIVKERLRNPKPVRVTLDEL
notes: antitoxin RelB of the relBE locus, Escherichia coli, wild type; also called WT RelB; antitoxin RelB; source: also in cells, co-expressed with His6-RelE
Question: What does the source list for B1?
Answer: stoichiometry N [6]: 2 and 4; stoichiometry N (His6-RelE [7]): ~2 RelB/RelE; stoichiometry N (His6-RelE [8]): 2 RelB/RelE

B2: RelB^S28R (natural protein, E. coli, UniProt P0C079 1-79, looked up)
chain: MGSINLRIDDELKARSYAALEKMGVTPREALRLMLEYIADNERLPFKQTLLSDEDAELVEIVKERLRNPKPVRVTLDEL
notes: antitoxin RelB, Escherichia coli, with S28R; also called RelB RHH variant S28R; source: also in cells, co-expressed with His6-RelE
Question: B2 was tested. Which “stoichiometry N” value [6] did it give?
Answer: Its value is 2 and 4.

B3: RelB^K13A (natural protein, E. coli, UniProt P0C079 1-79, looked up)
chain: MGSINLRIDDELAARSYAALEKMGVTPSEALRLMLEYIADNERLPFKQTLLSDEDAELVEIVKERLRNPKPVRVTLDEL
notes: antitoxin RelB, Escherichia coli, with K13A; also called RelB RHH variant K13A; source: also in cells, co-expressed with His6-RelE
Question: Does B3 bind [6]?
Answer: Result: binds

B4: RelB^S28L (natural protein, E. coli, UniProt P0C079 1-79, looked up)
chain: MGSINLRIDDELKARSYAALEKMGVTPLEALRLMLEYIADNERLPFKQTLLSDEDAELVEIVKERLRNPKPVRVTLDEL
notes: antitoxin RelB, Escherichia coli, with S28L; also called RelB RHH variant S28L; source: also in cells, co-expressed with His6-RelE
Question: How did the “stoichiometry N” value [6] turn out when B4 was run?
Answer: The value was 2 and 4.

B5: RelB^R7A (natural protein, E. coli, UniProt P0C079 1-79, looked up)
chain: MGSINLAIDDELKARSYAALEKMGVTPSEALRLMLEYIADNERLPFKQTLLSDEDAELVEIVKERLRNPKPVRVTLDEL
notes: antitoxin RelB, Escherichia coli, with R7A; also called RelB RHH variant R7A; source: also in cells, co-expressed with His6-RelE
Question: Does B5 bind [6]?
Answer: Result: binds

B6: RelB^I8A (natural protein, E. coli, UniProt P0C079 1-79, looked up)
chain: MGSINLRADDELKARSYAALEKMGVTPSEALRLMLEYIADNERLPFKQTLLSDEDAELVEIVKERLRNPKPVRVTLDEL
notes: antitoxin RelB, Escherichia coli, with I8A; also called RelB RHH variant I8A; source: also in cells, co-expressed with His6-RelE
Question: How did the “stoichiometry N” value [6] turn out when B6 was run?
Answer: The value was 2 and 4.
